Experimental data reported in paper doi:10.1101/2020.01.27.921122 (bioRxiv, 2020).
“And” between values parts separate entries of the source, which are not always exact repeats. Equal values may be shown once.

Molecular target: T1, recombinant human Apaf-1(1-591AA)-His (human, UniProt O14727 1-591)
T1 sequence (looked up): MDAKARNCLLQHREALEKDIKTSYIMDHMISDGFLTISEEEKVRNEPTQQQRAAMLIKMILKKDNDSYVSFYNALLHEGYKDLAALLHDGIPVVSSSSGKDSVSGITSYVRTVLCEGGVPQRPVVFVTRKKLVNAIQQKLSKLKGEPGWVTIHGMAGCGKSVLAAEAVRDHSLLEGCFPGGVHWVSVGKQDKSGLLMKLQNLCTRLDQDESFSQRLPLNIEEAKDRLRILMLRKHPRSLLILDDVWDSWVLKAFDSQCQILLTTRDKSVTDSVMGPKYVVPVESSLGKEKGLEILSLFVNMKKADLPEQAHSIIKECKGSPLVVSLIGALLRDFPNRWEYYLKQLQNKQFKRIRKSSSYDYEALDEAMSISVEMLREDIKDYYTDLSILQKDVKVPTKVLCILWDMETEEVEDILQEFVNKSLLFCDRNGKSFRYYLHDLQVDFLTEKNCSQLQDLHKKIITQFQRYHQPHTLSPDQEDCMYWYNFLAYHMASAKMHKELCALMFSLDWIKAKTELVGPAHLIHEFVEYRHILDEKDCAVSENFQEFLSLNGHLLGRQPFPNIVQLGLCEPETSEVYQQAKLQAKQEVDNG
Test: SEC

B1: recombinant human caspase-4 (CARD)-Fc-HA (Fc fusion, UniProt P49662 1-91, looked up)
chain: MAEGNHRKKPLKVLESLGKDFLTGVLDNLVEQNVLNWKEEEKKKYYDAKTEDKVRVMADSMQEKQRMAGQMLLQTFFNIDQISPNKKAHPN
stoichiometry N: 1.8 molecules of caspase-4 (CARD) for each Apaf (1-591) heptamer and 2.1 molecules of caspase-4 (CARD) for each Apaf (1-591) heptamer
